The assay addresses T1, protein kinase C-iota (PKC-ι) (human, UniProt P41743 2-596).
T1 construct: Endogenous protein immunoprecipitated or blotted from cell lysates; also called PKC-i
T1 sequence (looked up): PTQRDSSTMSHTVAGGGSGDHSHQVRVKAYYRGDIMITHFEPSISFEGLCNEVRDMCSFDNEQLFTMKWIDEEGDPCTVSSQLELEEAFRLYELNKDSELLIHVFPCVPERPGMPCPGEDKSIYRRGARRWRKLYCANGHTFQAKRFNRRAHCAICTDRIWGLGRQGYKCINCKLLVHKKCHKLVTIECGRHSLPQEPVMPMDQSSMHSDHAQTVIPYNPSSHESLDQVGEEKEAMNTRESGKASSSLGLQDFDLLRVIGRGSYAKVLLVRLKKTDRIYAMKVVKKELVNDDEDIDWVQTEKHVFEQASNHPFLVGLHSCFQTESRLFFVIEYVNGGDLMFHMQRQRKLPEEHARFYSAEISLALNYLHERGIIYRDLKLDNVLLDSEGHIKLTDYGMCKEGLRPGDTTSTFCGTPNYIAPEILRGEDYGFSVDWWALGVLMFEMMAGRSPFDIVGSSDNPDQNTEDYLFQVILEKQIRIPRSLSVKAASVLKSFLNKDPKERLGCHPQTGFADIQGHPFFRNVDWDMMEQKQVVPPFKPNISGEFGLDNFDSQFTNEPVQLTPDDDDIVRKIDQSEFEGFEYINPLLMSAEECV
In words: Immunoprecipitation of Bad (200 µg protein) from RWPE-1 and DU-145 cells treated with control siRNA or PKC-ι siRNA, then immunoblot. The procedure:
PKC-ι is overexpressed in non-small cell lung cancer cells (NSCLC) and it has been reported to phosphorylate Bad at multiple sites for cell survival. To test whether PKC-ι can directly phosphorylate endogenous Bad, Bad protein (200 μg) was immunoprecipitated from control siRNA and PKC-ι siRNA treated (incubation time 24 h) RWPE-1 and DU-145 cells. Normal rabbit IgG agarose conjugate (5 μg) was used as a negative control.
A similar experiment was performed with DU-145 (FIG. 8A, third column). First, we investigated if PKC-ι associates with Bad. […] However, we observed an increase in phosphorylation of Bad ser-112, no significant changes in p-Bad (ser-136) and p-Bad (ser-155).
(In general: Immunoblotting shows a protein as a band on a membrane.)

Consider 1 molecule from patent US20090130195A1 (UNIVERSITY OF SOUTH FLORIDA, published 2009).

B1: Bad (other, UniProt Q92934 1-168, looked up)
chain: MFQIPEFEPSEQEDSSSAERGLGPSPAGDGPSGSGKHHRQAPGLLWDASHQQEQPTSSSHHGGAGAVEIRSRHSSYPAGTEDDEGMGEEPSPFRGRSRSAPPNLWAAQRYGRELRRMSDEFVDSFKKGLPRPKSAGTATQMRQSSSWTRVFQSWWDRNLGRGSSAPSQ
notes: Endogenous protein from human prostate cell lines; Its phosphorylation (ser-112, ser-136, ser-155) varies with cell line and treatment; also called Bad protein
Turning to B1, the binding result is “no binding”.
